Measurements published in patent US10125184B2, “Apolipoprotein E polypeptides and their use” (priority 2011, dated 2018).

Experiments:
SR-BI = test: Immunoblot of SR-BI; assay type: cell-based
Protocol: (§1) FIGS. 4A-4C. (A) Huh7.5.1 cells seeded in a 12-well plate were treated with hEP-2 (20 μg/ml) for indicated time periods. Cells were stained with a mouse IgG (istotype control) or the anti-LDLR antibody followed by flow cytometric analysis. An overlay of 7 histograms is presented and the Δ median fluorescence intensity (ΔMFI, LDLR stain minus isotype control stain) of each sample is indicated to the upper right of the figure. (B) Cells were stained with anti-CD81 antibody and analyzed similarly as in A. (C) Immunonblots of SR-BI, CLDN1, and OCLN in the presence of hEP-2 or scrambled peptide.

Huh7.5.1 cells = test: Cytotoxicity/cell viability assay (CellTiter-Glo); assay type: cell-based; conditions: 48 hours; hEP up to 100 μg/ml (~14 μM)
Protocol: FIGS. 1A-1C. A human apoE derived peptide (hEP) suppresses HCV infection. (A) Schematic illustration of apoE protein domains and the amino acid sequences of hEP and mEP peptides. The amino acid sequences shown are hEP-1 (SEQ ID NO: 6) and mEP (SEQ ID NO: 20). (B) Dose dependent inhibition of HCVcc infection by hEP. Huh7.5.1 cells were infected with JFH-1 HCVcc-Luc (MOI˜0.5) in the presence of hEP or mEP for 2 hours. After removal of virus and peptides, cells were further incubated for 48 hours prior to luciferase assay. Data are presented as % inhibition relative to control infections in which cells were treated with DMSO (0%). Results are expressed as mean±standard deviation (s.d.) (n=3). (C). Huh7.5.1 cells were treated with hEP or DMSO at indicated doses for 48 hours. The effect of hEP on cell viability was measured by a CellTiter Glo assay kit.
Huh7.5.1 cells (10^5 per well) were treated with hEP or DMSO at various concentrations for 48 hours in 24-well plates. The numbers of viable cells in culture were determined using the CELLTITER-GLO® Cell Viability Luminescent Assay kit according to the manufacturer's instruction (Promega).

CLDN1 = test: Immunoblot of CLDN1; assay type: cell-based
Protocol: as §1

B1: hEP: human apoE dual-domain peptide: helix 4 of N-terminal domain plus major lipid-binding region; expressed in bacteria (protein)
peptide: EELRVRLASHLRKLRKRLLRDADDLQKRLAVYEEQAQQIRLQAEAFQARLKSWFEPLVEDM
In the case of B1, the “Effect on level of SR-BI” value (SR-BI) is reported as “did not affect”, the “Effect on infectivity of HIV-1” value (HIV-1) is reported as “did not affect the infectivity” and the “Cytotoxicity (cell viability)” value (Huh7.5.1 cells) is reported as “no cytotoxicity”. The “Effect on level of CLDN1” value (CLDN1) was “did not affect”.
